PMC4806843, “Structural and Functional Analysis of Calcium Ion Mediated Binding of 5-Lipoxygenase to Nanodiscs” (PLoS ONE, 2016)

Target: the molecule itself
Test: SEC; size exclusion chromatography of the purified 5LO preparation; standards aldolase (158 kDa) and conalbumin (75 kDa); two peaks, dimer and monomer

B1: human 5-lipoxygenase (enzyme, UniProt P09917 1-674, looked up)
chain: MPSYTVTVATGSQWFAGTDDYIYLSLVGSAGCSEKHLLDKPFYNDFERGAVDSYDVTVDEELGEIQLVRIEKRKYWLNDDWYLKYITLKTPHGDYIEFPCYRWITGDVEVVLRDGRAKLARDDQIHILKQHRRKELETRQKQYRWMEWNPGFPLSIDAKCHKDLPRDIQFDSEKGVDFVLNYSKAMENLFINRFMHMFQSSWNDFADFEKIFVKISNTISERVMNHWQEDLMFGYQFLNGCNPVLIRRCTELPEKLPVTTEMVECSLERQLSLEQEVQQGNIFIVDFELLDGIDANKTDPCTLQFLAAPICLLYKNLANKIVPIAIQLNQIPGDENPIFLPSDAKYDWLLAKIWVRSSDFHVHQTITHLLRTHLVSEVFGIAMYRQLPAVHPIFKLLVAHVRFTIAINTKAREQLICECGLFDKANATGGGGHVQMVQRAMKDLTYASLCFPEAIKARGMESKEDIPYYFYRDDGLLVWEAIRTFTAEVVDIYYEGDQVVEEDPELQDFVNDVYVYGMRGRKSSGFPKSVKSREQLSEYLTVVIFTASAQHAAVNFGQYDWCSWIPNAPPTMRAPPPTAKGVVTIEQIVDTLPDRGRSCWHLGAVWALSQFQENELFLGMYPEEHFIEKPVKEAMARFRKNLEAIVSVIAERNKKKQLPYYYLSPDRIPNSVAI
notes: 5-lipoxygenase (5LO), human, recombinant from pT3-5LO; 78 kDa; The preparation holds monomer and dimer, which were separated by SEC; also called 5LO; monomeric 5LO; source: E. coli BL21-(DE3) transformed with pT3-5LO, purified (ammonium sulfate precipitation, ATP agarose, gel filtration)
  stoichiometry N: 2
